Here are results for two molecules from paper PMC3241645 (Nucleic Acids Research, 2011).

The stoichiometry N is a count of units in the complex or per binding partner.

Data set [1] concerns the target Helicobacter pylori GluRS2 (non-canonical glutamyl-tRNA synthetase 2) (Helicobacter pylori) (UniProt O25360). The data set can be described thus: nanopore optical interferometry.
Data set [2] has the same target. In words: dynamic light scattering.
Data set [3] concerns the molecule itself. In words: nanopore optical interferometry.

In data set [1], “Helicobacter pylori GatCAB (tRNA-dependent amidotransferase) (complex)” showed an average optical path difference at plateau, 0.5 µM GatCAB of 0.6 nm; an average optical path difference at plateau, 2 µM GatCAB of 2.2 nm; an average optical path difference at plateau, 5 µM GatCAB of 5.4 nm; an average optical path difference at plateau, 10 µM GatCAB of 10.4 nm. The same molecule yielded an average optical path difference at plateau, 19 µM GatCAB in data set [1] of 16.2 nm. For the same molecule, the stoichiometry N in data set [2] amounted to 1.

B1: Helicobacter pylori GluRS2 (non-canonical glutamyl-tRNA synthetase 2) (enzyme, UniProt O25360 1-439, looked up)
chain: MLRFAPSPTGDMHIGNLRAAIFNYIVAKQQYKPFLIRIEDTDKERNIEGKDQEILEILKLMGISWDKLVYQSHNIDYHREMAEKLLKENKAFYCYASAEFLEREKEKAKNEKRPFRYSDEWATLEKDKHHAPVVRLKAPNHAVSFNDAIKKEVKFEPDELDSFVLLRQDKSPTYNFACACDDLLYKISLIIRGEDHVSNTPKQILIQQALGSNDPIVYAHLPIILDEVSGKKMSKRDEASSVKWLLNQGFLPVAIANYLITIGNKVPKEVFSLDEAIEWFSLENLSSSPAHFNLKYLKHLNHEHLKLLDDDKLLELTSIKDKNLLGLLRLFIEECGTLLELREKISLFLEPKDIVKTYENEDFKERCLALFNALTSMDFQAYKDFESFKKEAMRLSQLKGKDFFKPLRILLTGNSHGVELPLIFPYIQSHHQEVLRLKA
Turning to B1, the binding result in data set [3] is recorded as “binds”.
